Data from article doi:10.1101/2021.11.09.467869 (bioRxiv, 2021).

Target: the molecule itself
Assay: SEC + other: negative-staining EM

B1: L6 TIR domain (L6^TIR), residues 26-231 (domain or fragment, UniProt Q40253 26-231, looked up)
chain: PNSKDSIVNDDDDSTSEVDAISDSTNPSGSFPSVEYEVFLSFRGPDTREQFTDFLYQSLRRYKIHTFRDDDELLKGKEIGPNLLRAIDQSKIYVPIISSGYADSKWCLMELAEIVRRQEEDPRRIILPIFYMVDPSDVRHQTGCYKKAFRKHANKFDGQTIQNWKDALKKVGDLKGWHIGKNDKQGAIADKVSADIWSHISKENLI
- binding result: binds
